Laboratory results published in patent US20240254222A1 (Bayer, published 2024).

T1: Cyno Semaphorin3A-Sema Domain, TPP-19122 (cynomolgus (Macaca fascicularis), UniProt Q63548 21-569 (rat entry), limits assumed)
T1 construct: produced inhouse
T1 chain: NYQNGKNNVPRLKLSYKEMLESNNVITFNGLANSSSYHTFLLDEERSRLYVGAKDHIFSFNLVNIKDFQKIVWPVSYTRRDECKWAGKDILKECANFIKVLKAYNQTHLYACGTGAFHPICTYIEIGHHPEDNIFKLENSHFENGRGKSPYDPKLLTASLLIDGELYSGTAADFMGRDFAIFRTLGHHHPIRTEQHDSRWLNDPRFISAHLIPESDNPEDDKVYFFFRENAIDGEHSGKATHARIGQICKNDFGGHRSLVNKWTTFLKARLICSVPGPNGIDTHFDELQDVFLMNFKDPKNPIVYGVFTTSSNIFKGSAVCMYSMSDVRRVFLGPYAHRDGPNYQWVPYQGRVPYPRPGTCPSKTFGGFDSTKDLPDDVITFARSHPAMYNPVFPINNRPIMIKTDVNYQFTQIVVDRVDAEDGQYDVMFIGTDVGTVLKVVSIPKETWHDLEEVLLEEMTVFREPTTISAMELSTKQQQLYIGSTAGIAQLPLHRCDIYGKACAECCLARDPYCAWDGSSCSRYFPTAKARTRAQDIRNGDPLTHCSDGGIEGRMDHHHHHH

T2: human wild-type Sema3A of SEQ ID NO: 600, expressed by HEK293 cells (human, UniProt Q14563 22-771, limits assumed)
T2 sequence: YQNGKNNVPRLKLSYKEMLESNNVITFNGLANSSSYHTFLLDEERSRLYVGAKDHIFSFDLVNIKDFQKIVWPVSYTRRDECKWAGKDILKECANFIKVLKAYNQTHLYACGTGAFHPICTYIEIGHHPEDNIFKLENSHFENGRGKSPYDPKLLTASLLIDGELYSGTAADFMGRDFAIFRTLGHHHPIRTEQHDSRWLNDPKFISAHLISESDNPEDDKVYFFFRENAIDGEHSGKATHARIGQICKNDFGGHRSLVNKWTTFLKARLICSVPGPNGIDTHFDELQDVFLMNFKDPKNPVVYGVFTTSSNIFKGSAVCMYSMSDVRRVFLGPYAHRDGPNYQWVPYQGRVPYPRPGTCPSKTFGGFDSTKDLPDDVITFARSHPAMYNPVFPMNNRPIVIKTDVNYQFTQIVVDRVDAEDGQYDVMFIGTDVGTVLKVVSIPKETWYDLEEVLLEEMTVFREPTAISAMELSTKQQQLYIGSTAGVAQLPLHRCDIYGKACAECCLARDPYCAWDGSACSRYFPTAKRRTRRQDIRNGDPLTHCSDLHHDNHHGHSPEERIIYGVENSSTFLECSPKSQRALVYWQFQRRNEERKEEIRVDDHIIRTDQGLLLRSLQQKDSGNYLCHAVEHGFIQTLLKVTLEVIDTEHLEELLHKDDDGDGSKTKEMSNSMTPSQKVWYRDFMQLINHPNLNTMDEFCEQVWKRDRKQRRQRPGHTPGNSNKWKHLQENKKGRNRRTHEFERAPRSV


Legend:
[1] = molecular target: T1, Cyno Semaphorin3A-Sema Domain, TPP-19122; assay: SPR, captured antibody, Sema3A domain analyte
Outline: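 Antibodies captured on anti-human Fc surface, monovalent Sema3A domain (human, mouse, cyno, rat, dog, pig) injected at 0.024-3.125 nM, multi-cycle kinetics, 25° C, HBS P+ with 300 mM NaCl, CaCl₂, MgCl₂, BSA. Double-referenced sensorgrams fitted 1:1 Langmuir; binding activity = experimental RMax / theoretical RMax.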

[2] = molecular target: T2, human wild-type Sema3A of SEQ ID NO: …; assay: cell-based or functional assay
[3] = molecular target: T3, Human Semaphorin3A-Fc (R&D Systems), TPP-13211 (human); assay: ELISA, signal on TPP-13211 divided by signal on TPP-19068
T3 construct: R&D Systems 1250-S3; also called recombinant human Sema3A-Fc chimera
From the text: In the in vivo situation Sema3A exists in both forms side by side.

T3 sequence (chain, as listed by the source limits assumed): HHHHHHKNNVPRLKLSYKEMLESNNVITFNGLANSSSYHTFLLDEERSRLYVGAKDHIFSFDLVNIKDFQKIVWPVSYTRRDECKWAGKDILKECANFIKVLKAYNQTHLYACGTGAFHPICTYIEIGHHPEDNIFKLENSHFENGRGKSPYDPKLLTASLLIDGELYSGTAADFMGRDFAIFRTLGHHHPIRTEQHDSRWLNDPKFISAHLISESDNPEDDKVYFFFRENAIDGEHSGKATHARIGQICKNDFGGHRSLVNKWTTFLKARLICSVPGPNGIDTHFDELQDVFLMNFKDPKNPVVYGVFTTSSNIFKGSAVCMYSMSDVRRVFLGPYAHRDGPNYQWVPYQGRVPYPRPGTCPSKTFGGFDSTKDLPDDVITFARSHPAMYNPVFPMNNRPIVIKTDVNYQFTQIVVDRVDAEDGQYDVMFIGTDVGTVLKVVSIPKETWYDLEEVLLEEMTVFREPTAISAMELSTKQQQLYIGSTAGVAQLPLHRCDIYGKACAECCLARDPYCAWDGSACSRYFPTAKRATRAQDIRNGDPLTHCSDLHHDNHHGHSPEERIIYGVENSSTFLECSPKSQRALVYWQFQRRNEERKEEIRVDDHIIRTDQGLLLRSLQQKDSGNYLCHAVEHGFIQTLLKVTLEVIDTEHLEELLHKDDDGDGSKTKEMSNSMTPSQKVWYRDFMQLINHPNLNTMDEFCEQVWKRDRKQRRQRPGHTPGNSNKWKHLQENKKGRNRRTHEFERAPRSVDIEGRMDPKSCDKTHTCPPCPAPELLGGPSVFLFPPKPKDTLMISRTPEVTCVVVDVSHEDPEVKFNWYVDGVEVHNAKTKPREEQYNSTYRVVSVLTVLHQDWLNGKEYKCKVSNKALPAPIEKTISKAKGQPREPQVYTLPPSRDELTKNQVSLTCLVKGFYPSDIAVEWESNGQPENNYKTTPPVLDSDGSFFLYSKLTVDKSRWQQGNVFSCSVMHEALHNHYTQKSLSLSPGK

Binder	Binding Activity [%] [1] [%]	EC50 (pM), HUVEC repulsion assay, second experiment [2] [pM]	Ratio ELISA binding TPP-13211/TPP-19068 [3]
TPP-15374 (antibody, human IgG1, lambda, V domains shown, human IgG1; also called IgG1, hit from panning; parental mAb) VH: EVQLLESGGGLVQPGGSLRLSCAASGFTFSSYEMNWVRQAPGKGLEWVSGISWNSGSIGYADSVKGRFTISRDNSKNTLYLQMNSLRAEDTAVYYCARSGYSSSWFDPDFDYWGQGTLVTVSS VL: QSVLTQPPSASGTPGQRVTISCTGSSSNIGAGYDVHWYQQLPGTAPKLLIYGNSNRPSGVPDRFSGSKSGTSASLAISGLRSEDEADYYCSSYAGSNPYVVFGGGTKLTVLG	104	–	–
TPP-17755 (antibody, human IgG1, lambda, V domains shown, also called Samsung; Samsung Prior Art F11) VH: EVQLLESGGGLVQTGGSLRLSCAASGFTFSDYAMSWVRQAPGKGLEWVSWIYYDSGSKYYADSVKGRFTISRDNSKNTLYLQMNSLRAEDTAVYYCAKLNGDFDYWGQGTLVTVSS VL: QSVLTQPPSASGTPGQRVTISCSGSSSNIGNNDVSWYQQLPGTAPKLLIYADSHRPSGVPDRFSGSKSGTSASLAISGLRSEDEADYYCGAWDSSLSGYVFGGGTKLTVLG	53	2790	–
TPP-30788 (antibody, human IgG1, kappa, V domains shown, prior art, WO 2020/225400; also called BI clone I; Böhringer (BI) Clone I) VH: EVQLVESGGGLVQPGGSLRLSCAASGFTFSSYYMSWVRQAPGKGLEWVSTIIKSGGYAYYPDSVKDRFTISRDNSKNTLYLQMSSLRAEDTAVYYCVRGGQGAMDYWGQGTTVTVSS VL: EIVLTQSPATLSLSPGERATLSCRASQSIGDYLHWYQQKPGQAPRLLIKYASQSISGIPARFSGSGSGTDFTLTITSLEPEDFAVYYCQQGYSFPYTFGGGTKLEIKR	107	104	0.19
TPP-30790 (antibody, human IgG1, kappa, V domains shown, prior art, WO 2020/225400; also called BI clone III; Böhringer (BI) Clone III) VH: EVQLVESGGGLVQLGGSLRLSCAASGFTFSSYYMSWVRQAPGKGLEWVSTIIKSGGYAYYPDSVKDRFTISRDNSKNTLYLQMNSLRAEDTAVYYCVKGGQGAMDYWGQGTTVTVSS VL: EIVLTQSPATLSLSPGERATLSCRASQSIGDYLHWYQQKPGQAPRLLIYYASQSISGIPARFSGSGSGTDFTLTISSLEPEDFAVYYCQQGYSFPYTFGGGTKLEIKR	92	121	0.19
TPP-30791 (antibody, human IgG1, kappa, V domains shown, prior art, WO 2020/225400; also called BI clone IV; Böhringer (BI) Clone IV) VH: EVQLVESGGGLLQLGGSLRLSCAASGFTFSSYYMSWVRQAPGKGLEWVSTIIKSGGYAYYPDSVKDRFTISRDNSKNTLNLQMNSLRAEDTAVYYCVKGGQGAMDYWGQGTTVTVSS VL: EIVLTQSPATLSLSPGERATLSCRASQSIGDYLHWYQQKPGQAPRLLIKYASQSISGIPARFSGSGSGTDFTLTISSLEPEDFAVYYCQQGYSFPYTFGGGTKLEIKR	107	221	0.21
TPP-30789 (antibody, human IgG1, kappa, V domains shown, prior art, WO 2020/225400; also called BI clone II; Böhringer (BI) Clone II) VH: EVQLVESGGGLVQPGGSLRLSCAASGFPFSSYYMSWVRQAPGKGLEWVSTIIKSGGYAYYPDSVKDRFTISRDNSKNTLYLQMSSLRAEDTAVYYCVRGGQGAMDYWGQGTTVTVSS VL: EIVLTQSPATLSLSPGERATLSCRASQSIGDYLHWYQQKPGQAPRLLIKYASQSISGIPARFSGSGSGTDFTLTITSLEPEDFAVYYCQQGYSFPYTFGGGTKLEIKR	103	165	0.2
TPP-11489 (antibody, human IgG1, lambda, human IgG1; also called Chiome; Chiome Prior Art (hIgG1)) heavy: not shown light: SYELTQPPSVSVSPGQTARITCSGGGSYTGSYYYGWYQQKPGQAPVTVIYYNNKRPSDIPERFSGSLSGTTNTLTISGVQAEDEADYYCGSADNSGDAFGTGTKVTVLGQPKAAPSVTLFPPSSEELQANKATLVCLISDFYPGAVTVAWKADSSPVKAGVETTTPSKQSNNKYAASSYLSLTPEQWKSHRSYSCQVTHEGSTVEKTVAPTECS	13	> 20000	–
TPP-23298 (antibody, human IgG4 S228P, lambda, V domains shown) VH: EVQLLESGGGLVQPGGSLRLSCAASGFTFYSYAMSWVRQAPGKGLEWVSAIGTGGDTYYADSVKGRFTISRDNSKNTLYLQMNSLRAEDTAVYYCARRDDYTSRDAFDYWGQGTLVTVSS VL: not shown	106	54	0.66
TPP-15370 (antibody, human IgG1, lambda, V domains shown, human IgG1; also called IgG1, hit from panning; parental mAb) VH: EVQLLESGGGLVQPGGSLRLSCAASGFTFSSYGMHWVRQAPGKGLEWVSAIGTGGDTYYADSVMGRFTISRDNSKNTLYLQMNSLRAEDTAVYYCARRDDYTSRDAFDVWGQGTLVTVSS VL: not shown	139	–	–
